Experimental data taken from PMC4028250, “β1,6 GlcNAc Branches-Modified PTPRT Attenuates Its Activity and Promotes Cell Migration by STAT3 Pathway” (PLoS ONE, 2014).

Target: the molecule itself
Test: cross-linking; Mock-7721, GnT-V-7721, Mock-HT29 and GnT-V-HT29 cells grown to confluence, cell-surface proteins cross-linked with 3 mM BS3 for 2 hours at 4°C (on ice), stopped with 20 mM Tris-Cl, SDS lysis, immunoblot for PTPRT; dimer and monomer bands quantified with Image J

B1: receptor protein tyrosine phosphatase rho (PTPRT) (receptor, human (endogenous in SMMC-7721 and HT29), UniProt O14522 26-1441, looked up)
chain: QSAAGGCSFDEHYSNCGYSVALGTNGFTWEQINTWEKPMLDQAVPTGSFMMVNSSGRASGQKAHLLLPTLKENDTHCIDFHYYFSSRDRSSPGALNVYVKVNGGPQGNPVWNVSGVVTEGWVKAELAISTFWPHFYQVIFESVSLKGHPGYIAVDEVRVLAHPCRKAPHFLRLQNVEVNVGQNATFQCIAGGKWSQHDKLWLQQWNGRDTALMVTRVVNHRRFSATVSVADTAQRSVSKYRCVIRSDGGSGVSNYAELIVKEPPTPIAPPELLAVGATYLWIKPNANSIIGDGPIILKEVEYRTTTGTWAETHIVDSPNYKLWHLDPDVEYEIRVLLTRPGEGGTGPPGPPLTTRTKCADPVHGPQNVEIVDIRARQLTLQWEPFGYAVTRCHSYNLTVQYQYVFNQQQYEAEEVIQTSSHYTLRGLRPFMTIRLRLLLSNPEGRMESEELVVQTEEDVPGAVPLESIQGGPFEEKIYIQWKPPNETNGVITLYEINYKAVGSLDPSADLSSQRGKVFKLRNETHHLFVGLYPGTTYSFTIKASTAKGFGPPVTTRIATKISAPSMPEYDTDTPLNETDTTITVMLKPAQSRGAPVSVYQLVVKEERLQKSRRAADIIECFSVPVSYRNASSLDSLHYFAAELKPANLPVTQPFTVGDNKTYNGYWNPPLSPLKSYSIYFQALSKANGETKINCVRLATKGASTQNSNTVEPEKQVDNTVKMAGVIAGLLMFIIILLGVMLTIKRRRNAYSYSYYLKLAKKQKETQSGAQREMGPVASADKPTTKLSASRNDEGFSSSSQDVNGFTDGSRGELSQPTLTIQTHPYRTCDPVEMSYPRDQFQPAIRVADLLQHITQMKRGQGYGFKEEYEALPEGQTASWDTAKEDENRNKNRYGNIISYDHSRVRLLVLDGDPHSDYINANYIDGYHRPRHYIATQGPMQETVKDFWRMIWQENSASIVMVTNLVEVGRVKCVRYWPDDTEVYGDIKVTLIETEPLAEYVIRTFTVQKKGYHEIRELRLFHFTSWPDHGVPCYATGLLGFVRQVKFLNPPEAGPIVVHCSAGAGRTGCFIAIDTMLDMAENEGVVDIFNCVRELRAQRVNLVQTEEQYVFVHDAILEACLCGNTAIPVCEFRSLYYNISRLDPQTNSSQIKDEFQTLNIVTPRVRPEDCSIGLLPRNHDKNRSMDVLPLDRCLPFLISVDGESSNYINAALMDSHKQPAAFVVTQHPLPNTVADFWRLVFDYNCSSVVMLNEMDTAQFCMQYWPEKTSGCYGPIQVEFVSADIDEDIIHRIFRICNMARPQDGYRIVQHLQYIGWPAYRDTPPSKRSLLKVVRRLEKWQEQYDGREGRTVVHCLNGGGRSGTFCAICSVCEMIQQQNIIDVFHIVKTLRNNKSNMVETLEQYKFVYEVALEYLSSF
modifications: N-glycans with β1,6 GlcNAc branches (tri- and tetra-antennary), more of them in GnT-V overexpressing cells; sites not mapped
notes: receptor protein tyrosine phosphatase rho (PTPRT), type IIB receptor-like PTP, endogenous in human SMMC-7721 and HT29 cells; One molecule for PTPRT of Mock and of GnT-V overexpressing cells: the two differ only in the amount of β1,6 GlcNAc branches on unmapped N-glycan sites; also called PTPRT (ρ); source: endogenous, SMMC-7721 and HT29 cells stably infected with pCDH-puro (Mock) or …
  intensity ratio of dimer to monomer, GnT-V cells against Mock cells: ~2 fold
  stoichiometry N: 2
